Test results published in the supplement of paper PMC10567573.

B1: KIAA0774 (parent)
chain: FEDEVKRLGWQQQAELQELEERLQ
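Also: lentivirally expressed fusions sorted by FACS into six bins by GFP to DsRed ratio, PSI derived from sequencing read proportions per bin multiplied by bin number.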

Variants of: B1
Test: protein stability index of a GFP-peptide fusion (GPS, HEK-293T) (PSI 1-6); higher = more stable
Conditions: c terminus: a fixed tail appended
With FCDEVKRLGWQQQAELQELEERLQ [E2C] the protein stability index was 2.71.
In the case of FEDEWKRLGWQQQAELQELEERLQ [V5W], the protein stability index is reported as 3.5.
In the case of FEDESKRLGWQQQAELQELEERLQ [V5S], the protein stability index is reported as 3.47.
For FEDEHKRLGWQQQAELQELEERLQ [V5H], the protein stability index was 4.15.
FEDEGKRLGWQQQAELQELEERLQ [V5G] gave a protein stability index of 3.99.
With FEDEAKRLGWQQQAELQELEERLQ [V5A] the protein stability index was 3.86.
FEDEIKRLGWQQQAELQELEERLQ [V5I] gave a protein stability index of 3.87.
Work on FEDELKRLGWQQQAELQELEERLQ [V5L] yielded a protein stability index of 3.4.
In the case of FEDEPKRLGWQQQAELQELEERLQ [V5P], the protein stability index is reported as 4.01.
With FEDEFKRLGWQQQAELQELEERLQ [V5F] the protein stability index was 2.77.
For FEDEYKRLGWQQQAELQELEERLQ [V5Y], the protein stability index was 4.24.
For FEDEMKRLGWQQQAELQELEERLQ [V5M], the protein stability index was 4.19.
Work on FEDETKRLGWQQQAELQELEERLQ [V5T] yielded a protein stability index of 3.5.
Variant FEDEDKRLGWQQQAELQELEERLQ [V5D] has a protein stability index of 4.37.
For FEDECKRLGWQQQAELQELEERLQ [V5C], the protein stability index was 3.6.
For FEDEKKRLGWQQQAELQELEERLQ [V5K], the protein stability index was 2.54.
In the case of FEDERKRLGWQQQAELQELEERLQ [V5R], the protein stability index is reported as 2.75.
In the case of FEDEEKRLGWQQQAELQELEERLQ [V5E], the protein stability index is reported as 4.44.
In the case of FEDENKRLGWQQQAELQELEERLQ [V5N], the protein stability index is reported as 4.08.
With FEDEQKRLGWQQQAELQELEERLQ [V5Q] the protein stability index was 4.13.
FEREVKRLGWQQQAELQELEERLQ [D3R] gave a protein stability index of 2.35.
Variant FEEEVKRLGWQQQAELQELEERLQ [D3E] has a protein stability index of 3.86.
Work on FEYEVKRLGWQQQAELQELEERLQ [D3Y] yielded a protein stability index of 2.85.
For FEMEVKRLGWQQQAELQELEERLQ [D3M], the protein stability index was 2.59.
For FEGEVKRLGWQQQAELQELEERLQ [D3G], the protein stability index was 3.23.
FENEVKRLGWQQQAELQELEERLQ [D3N] showed a protein stability index of 2.75.
Variant FEQEVKRLGWQQQAELQELEERLQ [D3Q] has a protein stability index of 3.29.
For FEFEVKRLGWQQQAELQELEERLQ [D3F], the protein stability index was 2.72.
For FESEVKRLGWQQQAELQELEERLQ [D3S], the protein stability index was 2.58.
With FELEVKRLGWQQQAELQELEERLQ [D3L] the protein stability index was 2.95.
For FEPEVKRLGWQQQAELQELEERLQ [D3P], the protein stability index was 3.42.
With FEKEVKRLGWQQQAELQELEERLQ [D3K] the protein stability index was 2.03.
FEHEVKRLGWQQQAELQELEERLQ [D3H] showed a protein stability index of 2.99.
With FEVEVKRLGWQQQAELQELEERLQ [D3V] the protein stability index was 2.76.
Work on FEIEVKRLGWQQQAELQELEERLQ [D3I] yielded a protein stability index of 1.66.
FECEVKRLGWQQQAELQELEERLQ [D3C] showed a protein stability index of 2.3.
FETEVKRLGWQQQAELQELEERLQ [D3T] showed a protein stability index of 2.69.
Work on FEWEVKRLGWQQQAELQELEERLQ [D3W] yielded a protein stability index of 3.19.
Variant FEAEVKRLGWQQQAELQELEERLQ [D3A] has a protein stability index of 3.33.
For FEDEVKRAGWQQQAELQELEERLQ [L8A], the protein stability index was 3.66.
For FEDEVKREGWQQQAELQELEERLQ [L8E], the protein stability index was 4.52.
In the case of FEDEVKRQGWQQQAELQELEERLQ [L8Q], the protein stability index is reported as 4.48.
With FEDEVKRMGWQQQAELQELEERLQ [L8M] the protein stability index was 2.83.
For FEDEVKRFGWQQQAELQELEERLQ [L8F], the protein stability index was 3.98.
Work on FEDEVKRRGWQQQAELQELEERLQ [L8R] yielded a protein stability index of 4.05.
With FEDEVKRTGWQQQAELQELEERLQ [L8T] the protein stability index was 3.93.
With FEDEVKRIGWQQQAELQELEERLQ [L8I] the protein stability index was 3.86.
Variant FEDEVKRHGWQQQAELQELEERLQ [L8H] has a protein stability index of 3.79.
FEDEVKRYGWQQQAELQELEERLQ [L8Y] showed a protein stability index of 3.72.
FEDEVKRWGWQQQAELQELEERLQ [L8W] gave a protein stability index of 3.4.
In the case of FEDEVKRVGWQQQAELQELEERLQ [L8V], the protein stability index is reported as 4.25.
With FEDEVKRKGWQQQAELQELEERLQ [L8K] the protein stability index was 3.57.
FEDEVKRGGWQQQAELQELEERLQ [L8G] showed a protein stability index of 3.42.
FEDEVKRDGWQQQAELQELEERLQ [L8D] showed a protein stability index of 4.77.
FEDEVKRNGWQQQAELQELEERLQ [L8N] showed a protein stability index of 3.48.
Work on FEDEVKRPGWQQQAELQELEERLQ [L8P] yielded a protein stability index of 4.45.
For FEDEVKRSGWQQQAELQELEERLQ [L8S], the protein stability index was 3.88.
Variant FEDEVKRLGWAQQAELQELEERLQ [Q11A] has a protein stability index of 3.64.
With FEDEVKRLGWCQQAELQELEERLQ [Q11C] the protein stability index was 3.86.
FEDEVKRLGWDQQAELQELEERLQ [Q11D] showed a protein stability index of 5.16.
For LEDEVKRLGWQQQAELQELEERLQ [F1L], the protein stability index was 4.06.
PEDEVKRLGWQQQAELQELEERLQ [F1P] showed a protein stability index of 4.12.
With SEDEVKRLGWQQQAELQELEERLQ [F1S] the protein stability index was 2.67.
For WEDEVKRLGWQQQAELQELEERLQ [F1W], the protein stability index was 3.93.
For YEDEVKRLGWQQQAELQELEERLQ [F1Y], the protein stability index was 3.38.
In the case of GEDEVKRLGWQQQAELQELEERLQ [F1G], the protein stability index is reported as 3.56.
With IEDEVKRLGWQQQAELQELEERLQ [F1I] the protein stability index was 3.86.
For MEDEVKRLGWQQQAELQELEERLQ [F1M], the protein stability index was 3.68.
TEDEVKRLGWQQQAELQELEERLQ [F1T] showed a protein stability index of 2.85.
VEDEVKRLGWQQQAELQELEERLQ [F1V] showed a protein stability index of 3.66.
Variant QEDEVKRLGWQQQAELQELEERLQ [F1Q] has a protein stability index of 4.05.
REDEVKRLGWQQQAELQELEERLQ [F1R] showed a protein stability index of 3.41.
In the case of HEDEVKRLGWQQQAELQELEERLQ [F1H], the protein stability index is reported as 4.02.
Work on KEDEVKRLGWQQQAELQELEERLQ [F1K] yielded a protein stability index of 2.96.
Variant NEDEVKRLGWQQQAELQELEERLQ [F1N] has a protein stability index of 4.32.
FEDEVKRLSWQQQAELQELEERLQ [G9S] showed a protein stability index of 1.91.
Work on FEDEVKRLEWQQQAELQELEERLQ [G9E] yielded a protein stability index of 4.63.
Variant FEDEVKRLYWQQQAELQELEERLQ [G9Y] has a protein stability index of 4.13.
Variant FEDEVKRLTWQQQAELQELEERLQ [G9T] has a protein stability index of 2.04.
With FEDEVKRLIWQQQAELQELEERLQ [G9I] the protein stability index was 3.73.
FEDEVKRLRWQQQAELQELEERLQ [G9R] gave a protein stability index of 3.75.
For FEDEVKRLCWQQQAELQELEERLQ [G9C], the protein stability index was 3.36.
With FEDEVKRLLWQQQAELQELEERLQ [G9L] the protein stability index was 3.15.
For FEDEVKRLHWQQQAELQELEERLQ [G9H], the protein stability index was 4.11.
For FEDEVKRLKWQQQAELQELEERLQ [G9K], the protein stability index was 3.23.
For FEDEVKRLFWQQQAELQELEERLQ [G9F], the protein stability index was 3.96.
For FEDEVKRLMWQQQAELQELEERLQ [G9M], the protein stability index was 3.13.
FEDEVKRLQWQQQAELQELEERLQ [G9Q] gave a protein stability index of 3.83.
Work on FEDEVKRLVWQQQAELQELEERLQ [G9V] yielded a protein stability index of 4.02.
Variant FEDEVKRLWWQQQAELQELEERLQ [G9W] has a protein stability index of 3.54.
Work on FEDEVKRLDWQQQAELQELEERLQ [G9D] yielded a protein stability index of 3.9.
For FEDEVKRLNWQQQAELQELEERLQ [G9N], the protein stability index was 2.62.
FEDEVKRLPWQQQAELQELEERLQ [G9P] gave a protein stability index of 4.17.
FEDEVKRLAWQQQAELQELEERLQ [G9A] gave a protein stability index of 3.83.
